Data as given in US7700353B2, “Compositions and methods for inducing apoptosis in tumor cells” (E-P Therapeutics, Inc., priority 1998, dated 2010).

How the values were obtained:
[1] = tested on: neuroblastoma SK-N-F1 cells; assay: Soft agar colony formation (hEb peptide); assay type: cell-based, human; conditions: 3.2 μM
Description: The effect of hEb-peptide on in vitro colony formation was tested in the presence or absence of either the mature hlGF-I or fetal bovine serum (FIG. 12). Human neuroblastoma SK-N-F1 cells (10^4) were mixed with 0.4% soft agar supplemented with or without hEb peptide (3.2 µM), IGF-I (5 nM) and/or fetal bovine serum (2.5%), as indicated. The cell mixtures were seeded on top of a solidified basal medium DMEM/F12 (1:1) containing 0.5% agar. Medium supplemented with various peptides or serum were overlaid on top of the solidified cell layer followed by a two-week period incubation at 37° C. in a 5% CO2 humidified incubator. The percentage of cells formed into colonies with a diameter greater than 100 µm Macpherson, Tissue culture methods and applications, pp 276-80: N.Y. Academic Press, 1973) were scored in triplicate and subjected to Student t-test analysis. At least three independent assays under each treatment conditions were carried out.

[2] = tested on: chorioallantoic membrane (CAM) of chick embryos; assay: Chick embryo chorioallantoic membrane (CAM) angiogenesis assay; assay type: in vivo; conditions: day 7
Description: A suitable assay is the chick embryo chorioallantoic membrane (CAM) assay described by Crum et al. Science 230:1375 (1985). See also, U.S. Pat. No. 5,001,116, hereby incorporated by reference, which describes the CAM assay. Briefly, the Ea-4 peptide (40 µg and 80 µg), endostatin (5 µg and 10 µg) and a PBS control buffer were delivered onto the chorioallantoic membrane (CAM) of three-day old chick embryos. The CAMs were photographed in ovo with a digital camera on day 7. The angiogenic response was assessed by counting the number of intersect points of the blood vessels spread out in a defined field (vessel density). […] The effect is quantified in the histogram in FIG. 17.
Each were dissolved in PBS, and various and known amounts of hEb-peptide (250 µg, 500 µg and 1000 µg respectively) and human endostatin (10 µg and 20 µg respectively) were applied to the CAM. Pictures were taken on day 7 for vessel density determination.

[3] = tested on: MDA-MB-231 cells on chicken CAM; assay: Human breast cancer cells seeded on chicken CAM; assay type: in vivo; conditions: single or multiple doses, five day old chicken embryos
Excerpt: The invasion of MDA-MB-231 cells in the chicken embryos was further confirmed by immunocytochemistry. […] The activity in the widely accepted chicken model, provides ample support for the belief that the methods of the invention can be used to treat cancer in animals as well as humans.

[4] = tested on: various human cancer cell lines; assay: Killing of cancer cells in vitro (% cell growth); assay type: cell-based; conditions: various amounts, about 48 hours
Description: FIG. 20 depicts the effects of synthetic hEB-peptide on killing of various human cancer cells. About 1×10^6 cells of cancer cells were seeded in each well of a 96-well plate and various amounts of synthetic hEb-peptide were added as indicated. The cells were cultured for about 48 hours and the % of cell growth was determined.
About 1×10^6 cells of various human cancer cell lines were seeded in each well of a 96-well culture plate with various amounts of synthetic human Eb-peptide (shEb-peptide). It is specifically contemplated by the inventors that in any of the examples of the preferred embodiments described herein, synthetic or recombinant E domain peptides can be used. After incubation for about 48 hours, the growth of cells in each well was determined and compared to non-hEb-peptide controls.

[5] = tested on: SK-N-F1 neuroblastoma cells; assay: Neurite-like process outgrowth / morphological differentiation; assay type: cell-based, human; conditions: 2 h
293GP cells = assay: Cell attachment assay; assay type: cell-based, human; conditions: 0.8 μM, serum-free medium, four days, after shaking
Description: To confirm whether treatment of transformed cells with the Ea-4 peptide could result in increased attachment of the cells to the culture dish, 293GP cells were cultured in a serum-free basal medium supplemented with Ea-4-peptide (0.8 µM) or 10% FBS, respectively, in 6-well culture chambers. After four days, the culture medium was removed, and cells were rinsed twice with PBS containing 0.02% EDTA, fresh PBS was added, and the culture plates shaken 20 times manually.

MDA-MB-231 (C) cells = assay: Apoptosis observed under microscope; assay type: cell-based, human; conditions: about 1.5 μM, about two hours
Description: FIG. 21 depicts apoptosis in MDA-MB-231 cells induced by rtEa4-peptide. MDA-MB-231 cells treated with about 1.5 μM of rtEa4-peptide (A, B, and C) or control peptide (D) for about two hours and observed under a microscope. Arrows indicate apoptotic cells.
Killing of cancer cells by E-peptide could be the consequence of apoptosis or necrosis. To differentiate these two possibilities, MDA-MB-231 (C) cells were grown in culture in the presence of about 1.5 μM of trout Ea4-peptide. After about two hours of incubation the cells were observed under a microscope. […] FIG. 22 presents the results of the effect of trout Ea4-peptide on induction of apoptosis in ovarian cancer cells (SKOV-3).

[6] = tested on: Caspase-3 mRNA in MDA-MB-231; assay: Induction of caspase-3 mRNA; assay type: cell-based, human
Excerpt: (§1) Induction of caspase-3 has been widely used as an indicator of cells undergoing apoptosis.

[7] = tested on: Caspase-3 mRNA in OVCAR-3(B); assay: Induction of caspase-3 mRNA; assay type: cell-based, human
Excerpt: as §1

[8] = tested on: Caspase-3 mRNA in SKOV-3(A); assay: Induction of caspase-3 mRNA; assay type: cell-based, human
Excerpt: as §1

[9] = tested on: activated caspase-3 in MDA-MB-231(C); assay: Activated caspase-3 staining; assay type: cell-based, human; conditions: about 1.5 μM, about 48 hours
Description: FIG. 24 depicts the effect of rtEa4-peptide on induction of apoptosis in MDA-MB-231 cells treated with rtEa4-peptide. (A) Detection of apoptosis by TUNEL assay; (B) Detection of apoptosis y detecting the induction of the activated caspase-3 activity. MDA-MB-231 cells were treated with about 1.5 μM of rtEa4-peptide for about 48 hours, fixed and subjected to TUNEL assay or stained with anti-human activated caspase-3 serum conjugated with rhodamine. Hydrogen peroxide (H2O2), 0.5 mM, was used to induce apoptosis as a positive control.
as §1

[10] = tested on: NIH 3T3 cells and caprine mammary epithelium cells (CMEC); conditions: recombinant peptides; cited from earlier work

B1: hEb: chemically synthesized human Eb peptide of pro-IGF-I, 77 amino acid residues (SEQ ID NO:1) (peptide, listed as Homo sapiens)
chain: RSVRAQRHTDMPKTQKYQPPSTNKNTKSQRRKGWPKTHPGGEQKEGTEASLQIRGKKKEQRREIGSRNAECRGKKGK
Question: Which “inhibition of colony formation” value ([1]; absence of serum and growth factors, colonies >100 μm) does the source give for B1 here?
Answer: 64%

Question: And the “inhibitory effect on anchorage-independent growth” value ([1]; over all medium conditions)?
Answer: 59-73%

Question: What about the “inhibition of colony formation” value ([1]; presence of FBS (2.5%)) of the same molecule?
Answer: 73%

Question: And the “inhibition of colony formation” value ([1]; presence of hIGF-I (5 nM))?
Answer: 59%

Question: And the vessel density ([2]; 250, 500 and 1000 μg on CAM)?
Answer: dose-dependent reduction

Question: And the “growth and invasion of MDA-MB-231 cells and induction of blood vessel formation on chicken CAM” value [3]?
Answer: inhibited

Question: What about the “killing of cancer cells” value [4] of the same molecule?
Answer: different degrees of killing

Question: And the Neurite length ([5]; 0.4 μM)?
Answer: 30 ± 1.6 μm

Question: And the Neurite length ([5]; 1.6 μM)?
Answer: 33 ± 3.8 μm

Question: What about the Neurite length ([5]; 3.2 μM) of the same molecule?
Answer: 33 ± 2.8 μm

B2: rtEa-4: recombinant Ea-4 peptide of rainbow trout pro-IGF-I, 74 amino acid residues (SEQ ID NO: 2) (protein)
chain: RSVRAQRHTDMPRTPKVSTAVQNVDRGTERRTAQHPDKTKTKKKPLSGHSHPSCKEVHQKNSSRGNTGGRNYRM
modifications: Oncorhynchus mykiss
Question: For B2, which “attachment of cells to the culture chamber” value (293GP cells) is on record?
Answer: remained attached to the culture chamber

Question: What about the blood vessel branching ([2]; 40 μg and 80 μg on CAM of three-day old chick embryos) of the same molecule?
Answer: inhibitory effect

Question: What about the “growth and invasion of MDA-MB-231 cells and induction of blood vessel formation on chicken CAM” value [3] of the same molecule?
Answer: inhibited

Question: And the “apoptosis (microscopy)” value (MDA-MB-231 (C) cells)?
Answer: going through apoptosis

Question: And the “Caspase-3 mRNA” value ([6]; 0.04 μM)?
Answer: 3.9 × 10^5 ± 3.8 × 10^4 molecules / μg total RNA

Question: What about the “Caspase-3 mRNA” value ([6]; 0.20 μM) of the same molecule?
Answer: 3.4 × 10^5 ± 3.1 × 10^4 molecules / μg total RNA

Question: What about the “Caspase-3 mRNA” value ([6]; 1.00 μM) of the same molecule?
Answer: 4.6 × 10^5 ± 9.5 × 10^4 molecules / μg total RNA

Question: What about the “Caspase-3 mRNA” value ([6]; 5.00 μM) of the same molecule?
Answer: 5.8 × 10^5 ± 1.3 × 10^4 molecules / μg total RNA

Question: And the “Caspase-3 mRNA” value ([7]; 0.04 μM)?
Answer: 7.8 × 10^5 ± 7.9 × 10^4 molecules / μg total RNA

Question: And the “Caspase-3 mRNA” value ([7]; 0.20 μM)?
Answer: 9.9 × 10^5 ± 2.0 × 10^4 molecules / μg total RNA

Question: And the “Caspase-3 mRNA” value ([7]; 1.00 μM)?
Answer: 1.9 × 10^5 ± 3.4 × 10^4 molecules / μg total RNA

Question: And the “Caspase-3 mRNA” value ([7]; 5.00 μM)?
Answer: 1.0 × 10^5 ± 1.4 × 10^4 molecules / μg total RNA

Question: What about the “Caspase-3 mRNA” value ([8]; 0.04 μM) of the same molecule?
Answer: 3.0 × 10^5 ± # molecules / μg total RNA

Question: What about the “Caspase-3 mRNA” value ([8]; 0.20 μM) of the same molecule?
Answer: 2.5 × 10^5 ± # molecules / μg total RNA

Question: What about the “Caspase-3 mRNA” value ([8]; 1.00 μM) of the same molecule?
Answer: 3.7 × 10^5 ± # molecules / μg total RNA

Question: And the “Caspase-3 mRNA” value ([8]; 5.00 μM)?
Answer: 2.2 × 10^5 ± # molecules / μg total RNA

Question: And the “level of activated caspase-3 activity” value [9]?
Answer: induced

Question: And the mitogenic activity [10]?
Answer: possess mitogenic activity
